In paper PMC7549369:

Key:
[1] = target: SipL-3×FLAG (Clostridioides difficile) (UniProt Q181G7); assay: co-IP; SipL-3×FLAG immunoprecipitated with anti-FLAG magnetic beads from cleared lysates of sporulating C. difficile (22 h in the legend, 24 h in the methods), eluted with FLAG peptide; untagged SpoIVA detected by Western blot; SpoIVA/SipL ratio in the elution set to 1 for WT
[2] = target: SipL (bacterial two-hybrid fusion from pKNT25-sipL) (Clostridioides difficile) (UniProt Q181G7); assay: two-hybrid; bacterial adenylate cyclase two-hybrid (BACTH) in E. coli BTH101; pKNT25-sipL with pUT18C-spoIVA variants; plates with 0.5 mM IPTG, 40 h at 30°C; β-galactosidase activity in Miller units

**Q.** With “SpoIVA D102A, untagged, in sporulating C. difficile (from UniProt Q182W3 1-491) (natural protein)” as the substance, how does the fold more coimmunoprecipitated with SipL-3×FLAG relative to wild-type SpoIVA [1] read?
**A.** The fold more coimmunoprecipitated with SipL-3×FLAG relative to wild-type SpoIVA was 1.8 fold.

**Q.** How did the fold reduction of binding to SipL relative to wild-type SpoIVA (β-galactosidase activity) [2] turn out when “SpoIVA K35A (bacterial two-hybrid fusion, pUT18C) (from UniProt Q182W3 1-491) (natural protein)” was run?
**A.** The fold reduction of binding to SipL relative to wild-type SpoIVA (β-galactosidase activity) was 3 fold.

**Q.** “SpoIVA K35A, untagged, in sporulating C. difficile (from UniProt Q182W3 1-491) (natural protein)” was tested. Which fold less coimmunoprecipitated with SipL-3×FLAG relative to wild-type SpoIVA [1] did it give?
**A.** Its fold less coimmunoprecipitated with SipL-3×FLAG relative to wild-type SpoIVA is 3 fold.

**Q.** For “SpoIVA K35E (bacterial two-hybrid fusion, pUT18C) (from UniProt Q182W3 1-491) (natural protein)”, which fold reduction of binding to SipL relative to wild-type SpoIVA (β-galactosidase activity) [2] is on record?
**A.** Its fold reduction of binding to SipL relative to wild-type SpoIVA (β-galactosidase activity) is 100 fold.

**Q.** With “SpoIVA K35E, untagged, in sporulating C. difficile (from UniProt Q182W3 1-491) (natural protein)” as the substance, how does the fold less coimmunoprecipitated with SipL-3×FLAG relative to wild-type SpoIVA [1] read?
**A.** Its fold less coimmunoprecipitated with SipL-3×FLAG relative to wild-type SpoIVA is 10 fold.

**Q.** With “SpoIVA T75A (bacterial two-hybrid fusion, pUT18C) (from UniProt Q182W3 1-491) (natural protein)” as the substance, how does the fold increase of binding to SipL relative to WT SpoIVA (β-galactosidase activity) [2] read?
**A.** The fold increase of binding to SipL relative to WT SpoIVA (β-galactosidase activity) was 2 fold.

**Q.** “SpoIVA T75A, untagged, in sporulating C. difficile (from UniProt Q182W3 1-491) (natural protein)” was tested. Which fold more coimmunoprecipitated with SipL-3×FLAG relative to wild-type SpoIVA [1] did it give?
**A.** The fold more coimmunoprecipitated with SipL-3×FLAG relative to wild-type SpoIVA was 1.5 fold.
